Assays:
Experiment in all cases: other fluorescence titration; quenching of the tryptophan fluorescence of SET/TAF-Iβ polypeptides (0.2 to 4 μM; excitation 295 nm, emission 345 nm) on addition of histone; PBS, 25°C; non-linear regression; three repeats
[1] = molecular target: SET/TAF-Iβ (1–277), GST removed (human) (UniProt Q01105)
[2] = molecular target: SET/TAF-Iβ (110–277), GST removed (human) (UniProt Q01105)
[3] = molecular target: SET/TAF-Iβ (1–210), GST removed (human) (UniProt Q01105)
[4] = molecular target: SET/TAF-Iβ (76–185), GST removed (human) (UniProt Q01105)
[5] = molecular target: SET/TAF-Iβ (76–210), GST removed (human) (UniProt Q01105)

Substance	Kd [1] [nM]	Kd [2] [nM]	Kd [3] [nM]	Kd [4] [nM]	Kd [5] [nM]
histone H2B (from UniProt P62808 1-126) (natural protein)	2870	–	–	–	–
calf thymus histone H3 (from UniProt P68432 1-136) (natural protein)	150	160	130	100	140
